Data on 2 substances can be found in article PMC4860041.

In this series the target is taxol-stabilized porcine microtubules (tubulin purified from porcine brain) (UniProt P02550). As to the kind of experiment: co-sedimentation.
Sequence of taxol-stabilized porcine microtubules (tubulin purified from porcine brain) (P02550 whole entry, looked up): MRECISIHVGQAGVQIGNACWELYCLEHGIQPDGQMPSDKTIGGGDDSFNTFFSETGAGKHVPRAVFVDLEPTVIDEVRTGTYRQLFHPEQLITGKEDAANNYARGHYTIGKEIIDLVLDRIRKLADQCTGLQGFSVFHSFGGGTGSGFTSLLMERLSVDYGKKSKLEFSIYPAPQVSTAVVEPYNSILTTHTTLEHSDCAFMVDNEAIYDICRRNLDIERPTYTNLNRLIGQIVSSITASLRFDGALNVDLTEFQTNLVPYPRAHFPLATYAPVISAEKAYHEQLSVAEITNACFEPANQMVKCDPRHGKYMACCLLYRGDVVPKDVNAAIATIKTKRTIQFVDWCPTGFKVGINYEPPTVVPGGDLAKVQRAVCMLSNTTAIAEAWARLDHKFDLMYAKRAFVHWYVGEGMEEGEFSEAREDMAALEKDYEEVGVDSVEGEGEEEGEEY

With “recombinant full-length GFP-MNB kinase (Drosophila Minibrain, isoform E)”, the “apparent Km” value was “a Km of 0.96 ± 0.10 μM (mean ± s.d.)”.
The entry for “recombinant GFP-B>A-MNB kinase (Basic-to-Acidic mutant, KKKRR 118-122 to EEEDD)” is “a Km of 4.46 ± 2.62 μM (mean ± s.d.)”.
